The text below walks through data of article doi:10.1101/2021.12.16.472899 (bioRxiv, 2021).

T1: NdhA (Arabidopsis thaliana (endogenous in the …, UniProt Q37165 1-360))
T1 sequence (looked up): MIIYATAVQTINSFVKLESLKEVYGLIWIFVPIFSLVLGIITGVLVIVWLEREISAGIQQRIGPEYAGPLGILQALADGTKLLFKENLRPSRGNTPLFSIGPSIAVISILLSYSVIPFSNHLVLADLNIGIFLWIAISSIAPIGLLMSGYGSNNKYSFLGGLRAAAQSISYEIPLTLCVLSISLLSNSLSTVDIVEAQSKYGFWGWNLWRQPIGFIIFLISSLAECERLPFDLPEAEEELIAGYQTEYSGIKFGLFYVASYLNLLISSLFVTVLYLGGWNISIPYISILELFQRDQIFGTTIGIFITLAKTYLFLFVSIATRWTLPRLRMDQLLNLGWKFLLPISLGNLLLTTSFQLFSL

B1: PnsL2 (natural protein, UniProt Q9XI73 69-190, looked up)
chain: WGTRSFIKEKYFMPGLSPEDAAARIKQTAEGLRDMREMLDHMSWRYVIFYIRLKQAYLSQDLTNAMNILPESRRNDYVQAANELVENMSELDFYVRTPKVYESYLYYEKTLKSIDNVVEFLA
B2: PnsB1 (natural protein, UniProt Q9S9N6 45-461, looked up)
chain: VNLKKKNNPWLDPFDSGEDPDNEYGSLFADGKQDEDPRPPDNPDNPYGFLKFPKGYTVELASLPLKIRGDVRRCCCVISGGVYENLLFFPTIQLIKDRYPGVQVDILTTERGKQTYELNKNVRWANVYDPDDHWPEPAEYTDMIGLLKGRYYDMVLSTKLAGLGHAAFLFMTTARDRVSYIYPNVNSAGAGLMLSETFTAENTNLSELGYSMYTQMEDWLGRPFRSVPRTPLLPLRVSISRKVKEVVAAKYRNAGAVTGKFIVIHGIESDSKASMQSKGDADSLLSLEKWAKIIKGVRGFKPVFVIPHEKERENVEDFVGDDTSIVFITTPGQLAALINDSAGVIATNTAAIQLANARDKPCIGLFSSEEKGKLFVPYAEEKSNCVIIASKTGKLADIDIGTVKNAMQVFEGSLALV
B3: PnsL1 (natural protein, UniProt O80634 81-238, looked up)
chain: AEEIPKSYSPFVDREDGYSYYYPSDWREFDFRAHDSAFKDRYLQLQNVRVRFIPTEKNDIHEVGPMEEVVYDLVKHKFAAPNQVATIYDMKERVEDGKNYYTFEYGLRTPIYATTSFATVAVGNNRYYTLIVGANERRWRKVKKQLQVVADSLKILQI
B4: PnsB2 (natural protein, UniProt Q94AQ8 18-348, looked up)
chain: SSISAPQTQTINTEKLEDKFGRKGIKFSESNNIPMVELKVRNGSSLKLSLSDAHVLSYKPKVYWKDEGFEEVLYTVDGDESRGGVGVVIVNGEEPKGGSSVISGCDWSVKDTDSDAIDALQIELSCTAGVLDITYIVSLYPVSMATALVVKNNGRKPVTLKPGIMSYLRFKKRSGAGIQGLKGCSYCPNPPLSSPFELLSPSEAMKAESSGWFGSEEGEKPGIWAVEDSVITLLEKKMSRIYGAPPAERLKAVYNTPPSKFETIDQGRGLFFRMIRIGFEEMYVGSPGSMWDKYGKQHYFVCTGPTSMLVPVDVASGETWRGAMVIEHDNL
B5: PnsL5 (natural protein)
chain: not shown
B6: Lhca2 (natural protein, UniProt Q9SYW8 44-257, looked up)
chain: RAVAADPDRPIWFPGSTPPEWLDGSLPGDFGFDPLGLSSDPDSLKWNVQAEIVHCRWAMLGAAGIFIPEFLTKIGILNTPSWYTAGEQEYFTDKTTLFVVELILIGWAEGRRWADIIKPGSVNTDPVFPNNKLTGTDVGYPGGLWFDPLGWGSGSPAKLKELRTKEIKNGRLAMLAVMGAWFQHIYTGTGPIDNLFAHLADPGHATIFAAFTPK
B7: Lhca6 (natural protein, UniProt Q8LCQ4 34-270, looked up)
chain: SSTGGRLMRERLVVVRAGKEVSSVCEPLPPDRPLWFPGSSPPEWLDGSLPGDFGFDPLGLGSDPDTLKWFAQAELIHSRWAMLAVTGIIIPECLERLGFIENFSWYDAGSREYFADSTTLFVAQMVLMGWAEGRRWADLIKPGSVDIEPKYPHKVNPKPDVGYPGGLWFDFMMWGRGSPEPVMVLRTKEIKNGRLAMLAFLGFCFQATYTSQDPIENLMAHLADPGHCNVFSAFTSH
B8: NdhD (natural protein, UniProt P26288 1-500, looked up)
chain: MNDFPWLTIIVVFPISAGSLMLFLPHRGNKVNKWYTICICILELLLTTYAFCYNFKMDDPLIQLSEDYKWIDFFDFYWRMGIDGLSIGTILLTGFITTLATLAAFPVTRDSRFFHFLMLAMYSGQIGSFSSRDLLLFFIMWELELIPVYLLLSMWGGKKRLYSATKFILYTAGSSIFLLIGVLGISLYGSNEPTLNLELLANKSYPVTLEILFYIGFLIAFAVKSPIIPLHTWLPDTHGEAHYSTCMLLAGILLKMGAYGLVRINMELLPHAHSMFSPWLLVVGTIQIIYAASTSPGQRNLKKRIAYSSVSHMGFIIIGISSITDPGLNGAILQIISHGFIGAALFFLAGTSYDRIRLVYLDEMGGMAISIPKIFTMFTILSMASLALPGMSGFIAEFIVFFGIITSQKYFLISKIFIIFVMAIGMILTPIYLLSMLRQMFYGYKLINIKNFSFFDSGPRELFLSISILLPIIGIGIYPDFVLSLASDKVESILSNYFYG
B9: Lhca5 (natural protein, UniProt Q9C639 33-256, looked up)
chain: AAGGGINPTVAVERATWLPGLNPPPYLDGNLAGDYGFDPLGLGEDPESLKWYVQAELVHSRFAMLGVAGILFTDLLRTTGIRNLPVWYEAGAVKFDFASTKTLIVVQFLLMGFAETKRYMDFVSPGSQAKEGSFFFGLEAALEGLEPGYPGGPLLNPLGLAKDVQNAHDWKLKEIKNGRLAMMAMLGFFVQASVTHTGPIDNLVEHLSNPWHKTIIQTLFTSTS
B10: PnsB3 (natural protein, UniProt Q9LU21 49-204, looked up)
chain: AISTAPASQPPAADEPDEPPAVDFAFVHSVLLPDGTPDVHWRRANGGQKLRDIMLDSNIELYGPYSKPLSNCAGVGTCATCMVEIVNGKELLNPRTDIEKEKLKRKPKNWRLACQTNVGNPDSTGLVVIQQLPEWKAHEWNIPKNIPNDDDLETST

Common to all, as to experiment: cryo-EM structure
For one assay, the target named is T1, NdhA.
The assay “PnsL1” has as its target B3.
The target of the assay “NdhD” is B8.
In another assay the target is NdhF (Arabidopsis thaliana (endogenous in the …, UniProt P56752 1-746)).
For the assay “PnsB2”, the target named is B4.
The target of the assay “PnsB1” is B2.

Sequence of NdhF (Arabidopsis thaliana (P56752 whole entry): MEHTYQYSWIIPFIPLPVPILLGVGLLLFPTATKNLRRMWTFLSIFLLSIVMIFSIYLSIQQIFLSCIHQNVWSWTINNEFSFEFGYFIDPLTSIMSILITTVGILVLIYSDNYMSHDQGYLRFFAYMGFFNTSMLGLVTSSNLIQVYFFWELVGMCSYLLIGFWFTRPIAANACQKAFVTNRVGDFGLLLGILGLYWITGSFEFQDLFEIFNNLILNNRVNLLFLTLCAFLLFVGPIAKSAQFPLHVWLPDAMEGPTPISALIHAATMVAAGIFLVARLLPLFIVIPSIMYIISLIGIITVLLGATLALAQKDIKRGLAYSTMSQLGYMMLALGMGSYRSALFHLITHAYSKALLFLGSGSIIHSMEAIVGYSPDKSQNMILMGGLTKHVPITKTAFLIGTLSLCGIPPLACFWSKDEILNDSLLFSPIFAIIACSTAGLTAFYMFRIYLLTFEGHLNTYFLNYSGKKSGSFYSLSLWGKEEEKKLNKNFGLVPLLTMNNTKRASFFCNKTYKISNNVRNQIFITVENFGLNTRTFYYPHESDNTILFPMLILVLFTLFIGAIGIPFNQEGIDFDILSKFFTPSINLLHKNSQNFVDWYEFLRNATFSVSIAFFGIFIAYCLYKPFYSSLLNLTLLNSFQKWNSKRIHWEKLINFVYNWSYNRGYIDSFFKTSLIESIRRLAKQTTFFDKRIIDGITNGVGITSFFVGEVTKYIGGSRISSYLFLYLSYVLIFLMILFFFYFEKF

B1: the binding result with NdhA and with PnsL1 was “binds” each time.

Turning to B2, the binding result with NdhD and with NdhF was “binds” throughout.

Turning to B3, the binding result with NdhA is reported as “binds”.

Turning to B4, the binding result in the assay with NdhF is listed as “binds”.

With B5, the binding result in the assay with NdhD is “binds”.

On to B6, for which, in the assay with NdhF, the binding result is on record as “binds”.

In the case of B7, the binding result with NdhF and with PnsB2 was “binds” throughout.

B8: the binding result in the assay with NdhF was “binds”.

Consider B9, for which the binding result with PnsB1 is given as “binds”.

On to B10, for which the binding result with PnsB1, with NdhF and with PnsB2 was “binds” each time.
